What was measured:
[1] = target: HBV core protein mutant Cp-Y132A (assembly-incompetent) homodimer (hepatitis B virus (HBV)) (UniProt P03147); assay: HAP-Alexa488 staining with photobleaching step counting
[2] = target: HBV core protein mutant Cp-Y132A (assembly-incompetent) homodimer (hepatitis B virus (HBV)) (UniProt P03147); assay: optical tweezers force spectroscopy

Substance: HBV core protein mutant Cp-Y132A (assembly-incompetent) homodimer (from UniProt P03147 1-149) (natural protein)
- stoichiometry N [1]: 2 Cp dimers
- ω (unitless association constant for two nucleic acid-bound ligands) [2]: 500

Reference: PMC8565845
